Experimental data as given in patent US20250257116A1.

Columns and labels:
[1] = molecular target: CD16-F176V-V196_S197insP-V197_T198insP (Homo sapiens (Human)) (UniProt P08637); assay: cell-based or functional assay
[2] = molecular target: CD16-WT (Homo sapiens (Human)) (UniProt P08637); assay: cell-based or functional assay

- decrease of CD16 expression on iNK cells after adding Raji cells and Rituximab [1]: 9%
- decrease of CD16 expression on iNK cells after adding Raji cells and Rituximab [2]: 40%
Substance: metalloproteinase 17 (ADAM17) (from UniProt P78536 215-824) (enzyme)
